In patent publication US6994974B1, “Intracellular amyloid-beta binding (ERAB) polypeptide-related assays” (The trustees of Columbia University in the city of New York, priority 1997, dated 2006):

Molecular target: T1, amyloid-beta peptide (1–42) (Homo sapiens, UniProt P05067)
T1 construct: the region encoding A4 (APP amino acids 653 to 694)
Assay: Binding of ^125I-TrcHis-ERAB polypeptide to amyloid-beta peptide (1–42) adsorbed to microtiter wells
Settings: excess unlabelled protein
Procedure: FIGS. 2A, 2B, 2C, 2D, 2E, 2F, and 2G. […] FIG. 2A. SDS-PAGE (12%; reduced) followed by immunoblotting of TrcHis-ERAB polypeptide (FIG. 2A, lane 1; 2 μg) and TrcHis-chloramphenicol acetyltransferase (CAT; FIG. 2A, lane 2; 2 μg) fusion proteins using anti-ERAB polypeptide IgG (3 μg/ml). […] FIGS. 2B and 2C. […] Binding was analyzed by nonlinear least squares analysis using the method of Klotz and Hunston (60). FIG. 2E. […] FIGS. 2F and 2G. […] 0 indicates wells coated with albumin alone. […] Control TrcHis-CAT construct (Invitrogen) was also used to transform E. coli and the fusion protein was purified as above. Antibody to ERAB polypeptide was prepared by immunizing rabbits with ERAB polypeptide-derived peptides, corresponding to residues 100–116 and 133–147, conjugated to keyhole limpet hemocyanin. […] (for ERAB polypeptide) or overnight at 4° C. […] Unbound radioactivity was removed by washing wells five times with ice cold phosphate-buffered saline containing Tween 20 (0.05%), and bound radioactivity was eluted by incubation with Nonidet P-40 (1%).

B1: TrcHis-CAT: control fusion protein, TrcHis-chloramphenicol acetyltransferase (protein)
chain: MEKKITGYTTVDISQWHRKEHFEAFQSVAQCTYNQTVQLDITAFLKTVKKNKHKFYPAFIHILARLMNAHPEFRMAMKDGELVIWDSVHPCYTVFHEQTETFSSLWSEYHDDFRQFLHIYSQDVACYGENLAYFPKGFIENMFFVSANPWVSFTSFDLNVANMDNFFAPVFTMGKYYTQGDKVLMPLAIQVHHAVCDGFHVGRMLNELQQYCDEWQGGA
modifications: left off: small tags and cut ends
notes: control fusion protein, TrcHis-chloramphenicol acetyltransferase
  Inhibition of ^125I-TrcHis-ERAB binding to adsorbed amyloid-beta peptide: did not inhibit
